Legend:
Test in all cases: cell-based or functional assay
HLA-DRB1*0101 = HLA-DRB1*0101 (human)
HLA-DRB1*0102 = HLA-DRB1*0102 (human)
HLA-DRB1*0103 = HLA-DRB1*0103 (human)
HLA-DRB1*1503 = HLA-DRB1*1503 (human)
HLA-DRB1*160201 = HLA-DRB1*160201 (human)
HLA-DRB1*0301 = HLA-DRB1*0301 (human)
HLA-DRB1*0302 = HLA-DRB1*0302 (human)
HLA-DRB1*0401 = HLA-DRB1*0401 (human)
HLA-DRB1*0402 = HLA-DRB1*0402 (human)
HLA-DRB1*040301 = HLA-DRB1*040301 (human)
HLA-DRB1*040501 = HLA-DRB1*040501 (human)
HLA-DRB1*1101 = HLA-DRB1*1101 (human)
HLA-DRB1*1102 = HLA-DRB1*1102 (human)
HLA-DRB1*1103 = HLA-DRB1*1103 (human)
HLA-DRB1*1104 = HLA-DRB1*1104 (human)
HLA-DRB1*110401 = HLA-DRB1*110401 (human)
HLA-DRB1*1201 = HLA-DRB1*1201 (human)
HLA-DRB1*1301 = HLA-DRB1*1301 (human)
HLA-DRB1*1302 = HLA-DRB1*1302 (human)
HLA-DRB1*1401 = HLA-DRB1*1401 (human)
HLA-DRB1*1402 = HLA-DRB1*1402 (human)
HLA-DRB1*0701 = HLA-DRB1*0701 (human)
HLA-DRB1*080101 = HLA-DRB1*080101 (human)
HLA-DRB1*080201 = HLA-DRB1*080201 (human)
HLA-DRB1*0901 = HLA-DRB1*0901 (human)

Measured: IFNγ production by T cell clone HER500.23c21, HERp270-284 at 1 µg/mL presented by the homozygous EBV-LcL line (ELISA)

ALVTYNTDTFESMPN [HER500 peptide #63 (HERp270-284)]
> 4000 pg/mL: all assays above

— patent US20120308513A1 (DENDREON, published 2012)
